Assay results: patent US10962518B2, “Dissolution test for sensitive drugs” (ROYAN INSTITUTE, priority 2017, dated 2021)
Read-outs that look alike come from different tables or passages of the source.

Assays:
[1] = cited from earlier work; for tstability of drug: at 37° C.
[2] = hGH stability tests in phosphate buffer (0.01 ppm hGH solution, stability versus time); format: physicochemical; settings: 0.01 ppm hGH in 0.05 M phosphate buffer pH=7.4
Method: In this example, exemplary systems and methods were used for performing dissolution tests on human growth hormone (hGH), consistent with an exemplary embodiment of the present disclosure. The release performance of hGH was evaluated for a 14-day period. First, the stability of hGH in a phosphate buffer at 37±1° C. was tested. To this end, a 0.01 ppm hGH solution in a 0.05 M phosphate buffer with a pH=7.4 was prepared. The prepared hGH solution was maintained at a temperature of approximately 37±1° C. and stability analyses were performed at 0, 1, 2, 3, 4, 6, 12, and 24 hours.
FIG. 4 illustrates an hGH stability versus time graph obtained from stability tests performed at 37±1° C., consistent with one or more exemplary embodiments of the present disclosure. […] Therefore, if a dissolution test was to be performed by available USP apparatuses, the hGH solution would have to be prepared, sampled and analyzed every 2 hours, which means for a dissolution evaluation that needs to be performed during a 14-day period, at least 168 dissolution tests must be performed.
The stability of hGH was then tested in a phosphate buffer at 5±2° C. To this end, a 0.01 ppm hGH solution in a 0.05 M phosphate buffer with a pH=7.4 was prepared. The prepared hGH solution was maintained at a temperature of approximately 5±2° C. and stability analyses were performed at 0, 1, 2, 3, 4, and 5 days. […]

O=C1CN(/N=C/c2ccc(-c3ccc([N+](=O)[O-])cc3)o2)C(=O)[N-]1.[Na+] [Dantrolene, dantrolene sodium]
tstability of drug ([1]; Buffer with pH 7.4): 1 h
time for which the drug is stable in the dissolution medium ([1]; phosphate buffer with a pH of 7.4, approximately 37° C.): 1 h

COc1ccc2[nH]c([S+]([O-])Cc3ncc(C)c(OC)c3C)nc2c1 (stereo not shown) [Omeprazole]
tstability of drug ([1]; phosphate buffer pH 7.5): <10 h

IGF-I: IGF-I, a drug listed in Table 2 with serum as its dissolution medium
tstability of drug ([1]; serum): <10 h

hGH: human growth hormone (hGH), the temperature-sensitive drug used in the Example
time for which the hGH solution is stable ([2]; 5±2° C., analyses at 0-5 days (FIG. 5)): 1 days
time for which the hGH solution is stable ([2]; 37±1° C., analyses at 0-24 hours (FIG. 4)): 0.083 days
tstability of drug ([1]; PBS buffer pH = 7.4): 1 h
